The values that follow come from patent publication US20160136234A1.

Some targets named below: Tie2 (h) (human) (UniProt Q02763); Fer (h) (human) (UniProt P16591); CDK3/cyclinE (h) (human) (UniProt Q00526); PRAK (h) (human) (UniProt Q8IW41); Rsk2 (h) (human) (UniProt P51812); PAK5 (h) (human) (UniProt Q9P286).
Common to all, as to assay: cell-based or functional assay
Another experiment concerns the target T1, NEK11 (h) (human) (UniProt Q8NG66).
T1 sequence (looked up): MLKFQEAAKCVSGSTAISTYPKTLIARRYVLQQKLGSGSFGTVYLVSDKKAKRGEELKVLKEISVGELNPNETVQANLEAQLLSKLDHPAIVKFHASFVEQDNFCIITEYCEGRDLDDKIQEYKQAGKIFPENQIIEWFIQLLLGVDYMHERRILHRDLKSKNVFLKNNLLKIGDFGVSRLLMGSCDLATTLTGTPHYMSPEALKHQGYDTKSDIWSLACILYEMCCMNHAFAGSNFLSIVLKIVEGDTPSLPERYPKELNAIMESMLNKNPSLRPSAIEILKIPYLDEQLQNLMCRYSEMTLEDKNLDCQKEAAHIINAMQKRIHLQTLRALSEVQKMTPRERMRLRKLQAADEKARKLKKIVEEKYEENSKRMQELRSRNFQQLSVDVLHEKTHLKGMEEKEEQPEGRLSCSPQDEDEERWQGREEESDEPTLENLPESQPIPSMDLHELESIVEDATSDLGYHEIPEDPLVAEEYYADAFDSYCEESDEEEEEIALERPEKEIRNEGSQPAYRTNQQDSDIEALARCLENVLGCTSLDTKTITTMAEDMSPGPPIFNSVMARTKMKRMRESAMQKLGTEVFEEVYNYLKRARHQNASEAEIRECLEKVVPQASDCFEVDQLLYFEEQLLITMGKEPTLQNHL

Another experiment deals with T2, Itk (h) (human) (UniProt Q08881).
T2 sequence (looked up): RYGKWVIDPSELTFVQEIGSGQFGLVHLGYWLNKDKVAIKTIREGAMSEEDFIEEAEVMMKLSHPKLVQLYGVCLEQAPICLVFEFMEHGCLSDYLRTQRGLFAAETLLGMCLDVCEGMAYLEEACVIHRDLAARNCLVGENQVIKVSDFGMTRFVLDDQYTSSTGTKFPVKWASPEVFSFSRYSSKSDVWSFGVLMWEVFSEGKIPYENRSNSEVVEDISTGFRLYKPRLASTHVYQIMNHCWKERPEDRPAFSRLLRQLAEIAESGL

Experiment [1] addresses Mitogen-Activated Protein Kinase-Activated Protein Kinase 2 (human) (UniProt P49137).
For a further experiment, the target named is T3, TSSK1 (h) (human) (UniProt Q9BXA7).
T3 sequence (looked up): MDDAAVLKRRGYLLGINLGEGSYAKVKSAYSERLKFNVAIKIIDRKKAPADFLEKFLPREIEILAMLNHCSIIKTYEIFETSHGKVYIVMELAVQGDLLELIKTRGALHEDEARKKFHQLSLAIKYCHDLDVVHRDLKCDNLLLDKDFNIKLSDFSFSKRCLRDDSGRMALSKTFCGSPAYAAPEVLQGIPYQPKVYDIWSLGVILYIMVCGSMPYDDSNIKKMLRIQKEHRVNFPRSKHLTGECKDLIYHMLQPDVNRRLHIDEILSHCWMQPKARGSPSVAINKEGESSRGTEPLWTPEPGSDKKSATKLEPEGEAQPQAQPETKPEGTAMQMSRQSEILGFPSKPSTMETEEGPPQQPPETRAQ

The target of the next experiment is T4, TBK1 (h) (human) (UniProt Q9UHD2).
T4 sequence (looked up): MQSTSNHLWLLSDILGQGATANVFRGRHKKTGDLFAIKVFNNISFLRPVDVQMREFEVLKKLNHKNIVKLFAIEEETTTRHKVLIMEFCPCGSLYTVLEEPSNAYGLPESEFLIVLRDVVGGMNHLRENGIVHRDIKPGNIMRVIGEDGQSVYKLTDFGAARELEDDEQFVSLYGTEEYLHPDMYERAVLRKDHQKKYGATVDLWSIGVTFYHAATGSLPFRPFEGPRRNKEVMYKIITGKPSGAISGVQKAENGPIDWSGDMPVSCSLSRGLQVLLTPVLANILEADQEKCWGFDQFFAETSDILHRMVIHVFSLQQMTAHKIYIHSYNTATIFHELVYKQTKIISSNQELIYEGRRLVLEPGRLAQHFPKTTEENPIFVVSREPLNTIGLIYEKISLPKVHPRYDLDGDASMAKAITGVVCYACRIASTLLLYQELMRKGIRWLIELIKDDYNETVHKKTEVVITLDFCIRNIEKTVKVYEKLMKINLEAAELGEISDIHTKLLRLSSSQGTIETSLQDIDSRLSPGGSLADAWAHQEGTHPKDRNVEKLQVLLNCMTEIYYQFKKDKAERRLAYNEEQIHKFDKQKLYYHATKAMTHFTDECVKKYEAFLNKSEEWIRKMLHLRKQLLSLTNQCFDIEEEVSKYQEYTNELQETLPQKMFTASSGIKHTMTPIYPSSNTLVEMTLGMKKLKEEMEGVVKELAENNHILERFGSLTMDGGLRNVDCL

For the next experiment, the target named is T5, ALK4 (h) (human) (UniProt P36896).
T5 sequence (looked up): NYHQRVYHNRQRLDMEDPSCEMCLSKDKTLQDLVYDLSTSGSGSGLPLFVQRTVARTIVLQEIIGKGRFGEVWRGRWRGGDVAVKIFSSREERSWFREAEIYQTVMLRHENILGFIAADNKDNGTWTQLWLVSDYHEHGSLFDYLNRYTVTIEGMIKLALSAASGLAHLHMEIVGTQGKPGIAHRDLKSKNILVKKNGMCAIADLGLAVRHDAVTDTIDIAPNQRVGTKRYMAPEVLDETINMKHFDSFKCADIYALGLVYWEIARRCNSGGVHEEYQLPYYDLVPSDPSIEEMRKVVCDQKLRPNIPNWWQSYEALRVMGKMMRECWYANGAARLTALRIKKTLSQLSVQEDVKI

PRAK (h) (human), sequence (Q8IW41 whole entry): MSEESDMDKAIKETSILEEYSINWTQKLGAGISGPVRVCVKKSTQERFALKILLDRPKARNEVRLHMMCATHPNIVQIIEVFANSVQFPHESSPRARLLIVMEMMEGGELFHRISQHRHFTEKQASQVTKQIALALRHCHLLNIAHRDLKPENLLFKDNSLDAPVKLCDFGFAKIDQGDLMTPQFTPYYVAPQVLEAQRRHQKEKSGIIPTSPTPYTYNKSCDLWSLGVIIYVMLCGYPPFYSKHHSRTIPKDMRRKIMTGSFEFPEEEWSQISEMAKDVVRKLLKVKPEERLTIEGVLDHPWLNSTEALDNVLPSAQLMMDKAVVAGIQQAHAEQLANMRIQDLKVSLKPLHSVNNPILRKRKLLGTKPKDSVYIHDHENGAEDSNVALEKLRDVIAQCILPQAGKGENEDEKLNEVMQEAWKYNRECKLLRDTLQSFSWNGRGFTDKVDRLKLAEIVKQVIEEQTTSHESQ
Tie2 (h) (human), sequence (Q02763 771-1124 limits assumed): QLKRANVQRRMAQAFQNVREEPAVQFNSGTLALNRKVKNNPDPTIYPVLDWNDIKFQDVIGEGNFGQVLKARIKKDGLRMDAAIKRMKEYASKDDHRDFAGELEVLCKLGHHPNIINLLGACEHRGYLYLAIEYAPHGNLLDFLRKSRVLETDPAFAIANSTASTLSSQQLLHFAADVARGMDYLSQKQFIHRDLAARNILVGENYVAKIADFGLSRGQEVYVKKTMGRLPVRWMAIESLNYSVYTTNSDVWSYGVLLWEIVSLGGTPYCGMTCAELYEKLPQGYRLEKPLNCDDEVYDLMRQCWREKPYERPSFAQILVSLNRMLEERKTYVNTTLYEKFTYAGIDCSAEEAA
Rsk2 (h) (human), sequence (P51812 whole entry): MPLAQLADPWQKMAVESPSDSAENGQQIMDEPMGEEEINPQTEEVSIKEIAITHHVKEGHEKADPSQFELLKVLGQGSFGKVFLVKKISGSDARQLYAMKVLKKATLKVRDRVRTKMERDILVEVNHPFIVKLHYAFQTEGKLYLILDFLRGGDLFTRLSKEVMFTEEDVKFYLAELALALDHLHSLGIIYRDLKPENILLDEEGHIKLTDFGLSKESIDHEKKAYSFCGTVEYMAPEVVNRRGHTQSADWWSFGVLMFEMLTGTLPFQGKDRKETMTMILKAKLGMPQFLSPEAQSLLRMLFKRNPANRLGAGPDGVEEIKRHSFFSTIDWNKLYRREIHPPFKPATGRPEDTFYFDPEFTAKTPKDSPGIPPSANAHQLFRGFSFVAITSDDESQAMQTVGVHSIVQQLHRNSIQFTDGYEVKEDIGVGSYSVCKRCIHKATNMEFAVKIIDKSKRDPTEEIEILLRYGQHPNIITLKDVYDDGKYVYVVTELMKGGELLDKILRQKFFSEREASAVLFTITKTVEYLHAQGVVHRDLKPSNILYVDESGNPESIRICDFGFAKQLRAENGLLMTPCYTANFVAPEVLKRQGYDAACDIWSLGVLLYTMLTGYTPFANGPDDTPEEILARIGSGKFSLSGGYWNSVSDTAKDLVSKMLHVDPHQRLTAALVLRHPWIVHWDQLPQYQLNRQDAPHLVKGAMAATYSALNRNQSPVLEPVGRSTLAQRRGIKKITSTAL

For the substance MMI-0300 (peptide), the % activity at 100 µM was determined as 26% in the experiment with Tie2 (h) (human); 53% with NEK11 (h) (human); 77% with Itk (h) (human); 5% in [1]; 130% with Fer (h) (human); 79% with TSSK1 (h) (human). Further, the % activity at 100 µM with TBK1 (h) (human) is 37%; with CDK3/cyclinE (h) (human), 94%; in the experiment with PRAK (h) (human) it was 128%; in the experiment with Rsk2 (h) (human), 51%; with ALK4 (h) (human), 140%; in the experiment with PAK5 (h) (human), 110%.
